Source: patent US20110319338A1, “PEPTIDES THAT BIND EUKARYOTIC TRANSLATION INITIATION FACTOR 4E” (The Board of Regents of the University of Texas System, priority 2008, published 2011)
Like-named read-outs stand apart in the source and are kept apart here.

Experiments:
eIF4E = target: T1, eIF4E (Homo sapiens, UniProt P06730); assay: Streptavidin-agarose pull-down of biotinylated peptide from OVCAR-3 cell lysate, Western blot with eIF4E antibody; type: binding; conditions: biotinylated peptide 3 micromoles per liter, 250 micrograms OVCAR-3 cell lysate
T1 construct: endogenous in cells; host or cells: OVCAR-3 cell lysate
Experimental: (§1) FIGS. 1A-1G. 4EBP peptides bind eIF4E and inhibit binding of eIF4E to eIF4G. (FIG. 1A) Sequences of peptides comprising residues 49 to 68 of 4EBP1 and 4EBP2. (FIG. 1B) Biotinylated peptides (3 micromoles per liter) were incubated with 250 micrograms of OVCAR-3 cell lysate. Peptides were pulled-down using streptavidin-agarose. Precipitates (P) and supernatants (S) were analyzed by Western blot using eIF4E antibody. In (FIG. 1C), immunoprecipitation was performed using eIF4E antibody, and Western blot performed using eIF4G antibody. (FIG. 1D) Sequences of wild-type and mutant 4EBP peptides fused to TAT (mutant residues are highlighted). (FIG. 1E) OVCAR-3 cells were treated with biotinylated peptides (3 micromoles per liter, final concentration) for 16 hours. Internalized peptides were detected by staining fixed cells with Texas Red-conjugated streptavidin. Nuclei were visualized by staining with 4′,6-Diamidino-2-Phenylindole (DAPI). (FIGS. 1F and 1G) OVCAR-3 cell lysates were incubated with peptides as described for FIG. 1B. In (FIG. 1F), immunoprecipitation was performed using streptavidin-agarose and Western blot performed using eIF4E antibody. In (FIG. 1G), immunoprecipitation was performed using eIF4E antibody, and Western blot performed using eIF4G antibody.
(§2) FIGS. 3A-3H. Uptake, binding and inhibitory effects of [DLys6]GnRH-4EBP fusion peptides. (FIG. 3A) Sequences of [DLys6]GnRH, and wild-type and mutant 4EBP1 peptides fused to the agonist. (FIG. 3B) Western blot of GnRH-RI levels in OVCAR-3, ES-2, MDA-MB-231, BJ, HUVEC and SKOV3 cells. (FIG. 3C) Detection of biotinylated peptides in OVCAR-3 and SKOV3 by Texas Red-conjugated streptavidin at 16 hours after peptide addition (3 micromoles per liter). In (FIGS. 3D and 3E), biotinylated peptides were incubated with OVCAR-3 cell lysate as described in FIG. 1. In (FIG. 3D), peptide was pulled down using streptavidin-agarose. Precipitates (P) and supernatants (S) were analyzed by Western blot using eIF4E antibody. In (FIG. 3E), immunoprecipitation was performed using eIF4E antibody, and Western blot performed using eIF4G antibody. (FIG. 3F) R-Luc and F-Luc activities were assayed in ES-2-DualLuc cells at 6 hours after addition of the indicated concentrations of peptides, and are expressed relative to the respective luciferase activities in cells incubated without peptide. Shown are results of triplicate assays performed independently two times, and the statistical significance of differences in relative R-Luc and F-Luc activities in cells treated with peptide at a concentration of 10 micromoles per liter (FIG. 3G) Cells of GnRH-RI-positive and -negative lines were treated with the indicated concentrations of peptides. […]

[1] = target: T2, binding of eIF4E to eIF4G (Homo sapiens, UniProt P06730); assay: Immunoprecipitation with eIF4E antibody and Western blot with eIF4G antibody, OVCAR-3 cell lysate incubated with peptide; conditions: peptide 3 micromoles per liter, 250 micrograms OVCAR-3 cell lysate
T2 construct: endogenous in cells; host or cells: OVCAR-3 cell lysate
Experimental: as §1, §2

ES-2-DualLuc cells = assay: Cell-based translation assay with bicistronic R-Luc/F-Luc reporter
Experimental: (§3) FIGS. 2A-2F. Inhibition of cap-dependent translation and cell growth by TAT-4EBP fusion peptides. (FIG. 2A) Representation of the pIRES-DualLuc bicistronic construct containing Renilla Luciferase (R-Luc) and firefly luciferase (F-Luc) genes. In (FIG. 2B), R-Luc and F-Luc activities were assayed in ES-2-DualLuc cells following treatment for 24 hours with rapamycin and for 3 hours with cycloheximide with the indicated concentrations of these drugs, and expressed relative to the respective luciferase activities in cells incubated without drug. Cell viability was not affected by rapamycin and cycloheximide under these conditions. In (FIG. 2C), R-Luc and F-Luc activities were assayed in ES-2-DualLuc cells following treatment for 6 hours with the indicated concentrations of peptides, and expressed relative to the respective luciferase activities in cells incubated without peptide. Shown are results of triplicate assays performed independently two times, and the statistical significance of differences in relative R-Luc and F-Luc activities in cells treated with peptide at a concentration of 10 micromoles per liter. (FIG. 2D) Viability of OVCAR-3 cells at 3 days after addition of the indicated concentrations of peptides, expressed relative to viability of cells incubated without peptide. Shown are results of triplicate assays performed in two independent experiments, and statistical significances of differences in viability of cells treated with TAT-4EBP1-WT vs. TAT-4EBP1-MT, and of cells treated with TAT-4EBP2-WT vs. TAT-4EBP2-MT at a concentration of 10 micromoles per liter. (FIG. 2E) OVCAR-3 cells at 3 days after peptide addition (10 micromoles per liter) viewed under phase-contrast microscopy. (FIG. 2F) Flow cytometric analysis of staining of terminal deoxynucleotidyl transferase-mediated dUTP nick end labeling (TUNEL) in OVCAR-3 cells at 3 days after peptide addition (10 micromoles per liter). Cells incubated for 3 days in the absence of peptide in medium with and without serum are included as controls.
FIGS. 3A-3H. Uptake, binding and inhibitory effects of [DLys6]GnRH-4EBP fusion peptides. (FIG. 3A) Sequences of [DLys6]GnRH, and wild-type and mutant 4EBP1 peptides fused to the agonist. (FIG. 3B) Western blot of GnRH-RI levels in OVCAR-3, ES-2, MDA-MB-231, BJ, HUVEC and SKOV3 cells. (FIG. 3C) Detection of biotinylated peptides in OVCAR-3 and SKOV3 by Texas Red-conjugated streptavidin at 16 hours after peptide addition (3 micromoles per liter). In (FIGS. 3D and 3E), biotinylated peptides were incubated with OVCAR-3 cell lysate as described in FIG. 1. In (FIG. 3D), peptide was pulled down using streptavidin-agarose. Precipitates (P) and supernatants (S) were analyzed by Western blot using eIF4E antibody. In (FIG. 3E), immunoprecipitation was performed using eIF4E antibody, and Western blot performed using eIF4G antibody. (FIG. 3F) R-Luc and F-Luc activities were assayed in ES-2-DualLuc cells at 6 hours after addition of the indicated concentrations of peptides, and are expressed relative to the respective luciferase activities in cells incubated without peptide. Shown are results of triplicate assays performed independently two times, and the statistical significance of differences in relative R-Luc and F-Luc activities in cells treated with peptide at a concentration of 10 micromoles per liter (FIG. 3G) Cells of GnRH-RI-positive and -negative lines were treated with the indicated concentrations of peptides. Viability at 3 days after peptide addition is expressed relative to viability of cells incubated with no peptide. Shown are results of triplicate assays performed in two independent experiments, and statistical significances of differences in viability of cells treated with wild-type vs. mutant [DLys6]GnRH-4EBP1 peptides at a concentration of 10 micromoles per liter. (FIG. 3H) ES-2 and parental SKOV3 cells at 3 days after peptide addition (30 micromoles per liter) viewed under phase-contrast microscopy. […]

OVCAR-3 cells = assay: Cell viability assay (crystal violet); type: cell-based; conditions: OVCAR-3, 3 days after peptide addition, 0.3 to 30 micromoles per liter
Experimental: as §3, with “Shown are results of triplicate assays performed in two independent experiments, and statistical significances of differences in viability of cells treated with TAT-4EBP1-WT vs. TAT-4EBP1-MT, and of cells treated with TAT-4EBP2-WT vs. TAT-4EBP2-MT at a concentration of 10 micromoles per liter. (FIG. 2E) OVCAR-3 cells at 3 days after peptide addition (10 micromoles per liter) viewed under phase-contrast microscopy. (FIG. 2F) Flow cytometric analysis of staining of terminal deoxynucleotidyl transferase-mediated dUTP nick end labeling (TUNEL) in OVCAR-3 cells at 3 days after peptide addition (10 micromoles per liter). Cells incubated for 3 days in the absence of peptide in medium with and without serum are included as controls.” left out
FIGS. 3A-3H. […] Precipitates (P) and supernatants (S) were analyzed by Western blot using eIF4E antibody. […]

[2] = rapamycin 24 hours, cycloheximide 3 hours

T1 sequence (P06730 whole entry): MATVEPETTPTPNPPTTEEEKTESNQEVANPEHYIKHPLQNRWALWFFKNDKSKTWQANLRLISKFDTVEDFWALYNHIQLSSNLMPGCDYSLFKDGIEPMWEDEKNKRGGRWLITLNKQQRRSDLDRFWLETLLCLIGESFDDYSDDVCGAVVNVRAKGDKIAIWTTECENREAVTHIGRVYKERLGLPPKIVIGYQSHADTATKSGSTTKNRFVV
T2 sequence (P06730 2-217 limits assumed): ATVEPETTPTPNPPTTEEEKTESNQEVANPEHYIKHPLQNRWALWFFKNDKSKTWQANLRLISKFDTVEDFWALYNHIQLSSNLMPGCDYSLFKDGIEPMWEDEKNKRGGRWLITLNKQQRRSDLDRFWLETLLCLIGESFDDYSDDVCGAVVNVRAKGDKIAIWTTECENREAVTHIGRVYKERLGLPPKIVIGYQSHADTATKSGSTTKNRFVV

Row | binding of peptide to eIF4E (eIF4E) | inhibition of eIF4E binding to eIF4G [1] | Compound | other results
1 | bound to eIF4E | inhibited eIF4E from binding eIF4G | 4EBP2-WT: peptide containing the region of 4EBP2 corresponding to residues 49-68 of 4EBP1 (GTRIIYDRKFLLDRRNSPMA) | –
2 | – | – | C[C@@H]1C[C@@H]([C@H](O)CC2CC(=O)NC(=O)C2)C(=O)[C@@H](C)C1 [cycloheximide] | cap-dependent translation (R-Luc read-out) (ES-2-DualLuc cells; [2]): inhibited both cap-dependent and independent translation; cap-independent translation (F-Luc readout) (ES-2-DualLuc cells; [2]): inhibited both cap-dependent and independent translation; cell viability under translation assay conditions (ES-2-DualLuc cells; [2]): not affected
3 | – | – | CO[C@H]1C[C@@H]2CC[C@@H](C)[C@@](O)(O2)C(=O)C(=O)N2CCCC[C@H]2C(=O)O[C@H]([C@H](C)C[C@@H]2CC[C@@H](O)[C@H](OC)C2)CC(=O)[C@H](C)/C=C(\C)[C@@H](O)[C@@H](OC)C(=O)[C@H](C)C[C@H](C)/C=C/C=C/C=C/1C [rapamycin] | cell viability under translation assay conditions (ES-2-DualLuc cells): not affected
4 | substantially impaired | substantially impaired | TAT-4EBP1-MT: TAT-4EBP1 fusion peptide in which Tyr-54, Arg-56 and Leu-59 were substituted by Gly (YGRKKRRQRRRGTRIIGDGKFGMECRNSPVT) | –
5 | substantially impaired | substantially impaired | TAT-4EBP2-MT: TAT-4EBP2 fusion peptide in which Tyr-54, Arg-56 and Leu-59 were substituted by Gly (YGRKKRRQRRRGTRIIGDGKFGLDRRNSPMA) | –
6 | – | – | TAT-4EBP2-WT: wild-type 4EBP2 residues fused to cell-penetrating residues of HIV TAT protein (YGRKKRRQRRRGTRIIYDRKFLLDRRNSPMA) | cap-dependent translation (R-Luc read-out) (ES-2-DualLuc cells; peptide 6 hours, 0.3 to 10 micromoles per liter, relative to cells without peptide): also inhibited cap-dependent translation, but was slightly less effective than TAT-4EBP1-WT; cell viability / growth (OVCAR-3 cells): decreased cell viability in a dose-dependent manner
